The values that follow come from patent US20190367578A1 (Novo Nordisk, published 2019).

T1: human GIP receptor (human) (UniProt P48546)
T1 sequence (looked up): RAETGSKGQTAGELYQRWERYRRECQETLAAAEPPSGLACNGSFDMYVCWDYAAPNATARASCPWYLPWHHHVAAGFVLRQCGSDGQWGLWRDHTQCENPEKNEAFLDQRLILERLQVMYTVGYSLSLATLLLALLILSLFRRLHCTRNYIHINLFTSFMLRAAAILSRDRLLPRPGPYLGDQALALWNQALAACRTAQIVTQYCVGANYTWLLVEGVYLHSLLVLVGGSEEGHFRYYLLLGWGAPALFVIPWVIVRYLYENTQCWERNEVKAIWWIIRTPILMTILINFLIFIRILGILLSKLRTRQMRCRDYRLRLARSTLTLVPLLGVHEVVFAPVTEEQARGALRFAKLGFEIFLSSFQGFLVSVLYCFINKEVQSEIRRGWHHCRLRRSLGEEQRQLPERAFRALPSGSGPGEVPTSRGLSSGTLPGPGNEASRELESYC

*1 amine or outer side, *2 acyl side, *3 side chain or, on linkers, in order; H or OH if unused. Where no end group is shown, it is not given here. Side-chain parts run from the residue outwards. [ ]: non-standard residue; d: D form. The star is where a group is joined. C18 diacid = O=C(O)CCCCCCCCCCCCCCCCC(=O)*; γGlu = O=C(O)[C@H](CCC(=O)[*:2])N[*:1]; Nle = CCCC[C@H](N)C(=O)O; AEEA = NCCOCCOCC(=O)O; Aib = CC(C)(N)C(=O)O

human GLP-1 receptor (human), sequence (P43220 24-463): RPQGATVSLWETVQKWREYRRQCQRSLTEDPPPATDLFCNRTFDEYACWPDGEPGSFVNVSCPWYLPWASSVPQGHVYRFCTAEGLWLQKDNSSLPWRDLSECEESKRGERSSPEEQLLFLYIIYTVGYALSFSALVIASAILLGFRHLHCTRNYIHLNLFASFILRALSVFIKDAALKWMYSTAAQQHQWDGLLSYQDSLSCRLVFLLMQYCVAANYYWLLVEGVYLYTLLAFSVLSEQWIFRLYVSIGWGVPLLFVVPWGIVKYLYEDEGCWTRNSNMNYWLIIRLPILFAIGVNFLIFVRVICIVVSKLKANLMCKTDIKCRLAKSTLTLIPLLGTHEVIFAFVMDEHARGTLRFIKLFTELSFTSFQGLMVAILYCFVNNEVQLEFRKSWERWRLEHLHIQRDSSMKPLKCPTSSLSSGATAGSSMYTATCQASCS

The first test concerns the target T1, human GIP receptor (human). Put plainly: cell-based or functional assay.
Y[Aib]EGTFISDYSIA[Nle]DKIHQQDFVK([γGlu-γGlu-γGlu-C18 diacid])WLLAQKG: the EC50 (pM), hGIP-R CRE Luc, 0.2% HSA was 49.9 pM.

As to Y[Aib]EGTFISDYSIA[Nle]DKIRQQDFVK([γGlu-γGlu-γGlu-C18 diacid])WLLAQKGKENDWKHNITQ, the EC50 (pM), hGIP-R CRE Luc, 0.2% HSA is 20.1 pM.

Regarding Y[Aib]EGTFISDYSIA[Nle]DKIHQQDFVK([γGlu-γGlu-γGlu-C18 diacid])WLLAQKGKEEDWKHNITQ, the EC50 (pM), hGIP-R CRE Luc, 0.2% HSA turned out to be 9 pM.

For Y[Aib]EGTFISDYSIA[Nle]DKIHQQDFVK([AEEA-AEEA-γGlu-C18 diacid])WLLAQKGKEEDWKHNITQ, the EC50 (pM), hGIP-R CRE Luc, 0.2% HSA was determined as 5.45 pM.

As for Y[Aib]EGTFISDYSIA[Nle]DKIHQQDFVK([γGlu-γGlu-γGlu-C18 diacid])WLLAQKGKENDWKHNITQ, the EC50 (pM), hGIP-R CRE Luc, 0.2% HSA turned out to be 21.3 pM.

With Y[Aib]EGTFISDYSIALDKIHQQDFVK([AEEA-AEEA-γGlu-C18 diacid])WLLAQKGKKNDWKHNITQ, the EC50 (pM), hGIP-R CRE Luc, 0.2% HSA is 56 pM.

As for Y[Aib]EGTFISDYSIA[Nle]DKIHQQDFVK([γGlu-γGlu-γGlu-C18 diacid])WLLAQKGKEDDWKHNITQ, the EC50 (pM), hGIP-R CRE Luc, 0.2% HSA is 5.9 pM.

Turning to Y[Aib]EGTFISDYSIA[Nle]DKIRQQDFVK([AEEA-AEEA-γGlu-C18 diacid])WLLAQKGKEEDWKHNITQ, the EC50 (pM), hGIP-R CRE Luc, 0.2% HSA was 4.12 pM.

Take Y[Aib]EGTFISDYSIA[Nle]DKIRQQDFVK([γGlu-γGlu-γGlu-C18 diacid])WLLAQKGKEEDWKHNITQ: the EC50 (pM), hGIP-R CRE Luc, 0.2% HSA stood at 4.47 pM.

The molecule Y[Aib]EGTFISDYSIA[Nle]DKIHQQDFVK([AEEA-AEEA-γGlu-C18 diacid])WLLAQKGKEDDWKHNITQ yielded an EC50 (pM), hGIP-R CRE Luc, 0.2% HSA of 5.97 pM.

The target in the next test is human glucagon receptor (human) (UniProt P47871). Description: cell-based or functional assay.
human glucagon receptor (human), sequence (P47871 26-477): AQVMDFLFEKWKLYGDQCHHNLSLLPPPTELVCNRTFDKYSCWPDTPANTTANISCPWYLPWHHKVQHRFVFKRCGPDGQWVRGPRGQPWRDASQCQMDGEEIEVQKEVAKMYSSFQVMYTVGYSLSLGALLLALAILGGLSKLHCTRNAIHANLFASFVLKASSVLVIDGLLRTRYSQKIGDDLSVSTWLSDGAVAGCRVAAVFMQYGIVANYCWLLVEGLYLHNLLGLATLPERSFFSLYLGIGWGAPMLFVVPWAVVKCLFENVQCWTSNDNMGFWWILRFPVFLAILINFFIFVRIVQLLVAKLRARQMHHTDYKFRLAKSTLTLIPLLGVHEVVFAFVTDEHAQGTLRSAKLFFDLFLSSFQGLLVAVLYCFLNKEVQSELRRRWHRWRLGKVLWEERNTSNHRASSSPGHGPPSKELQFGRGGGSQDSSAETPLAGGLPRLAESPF
In the case of Y[Aib]EGTFISDYSIA[Nle]DKIHQQDFVK([γGlu-γGlu-γGlu-C18 diacid])WLLAQKG, the EC50 (pM), hGcg-R CRE Luc, 1% HSA (footnote *) is more than 100000 pM.

As to Y[Aib]EGTFISDYSIA[Nle]DKIRQQDFVK([γGlu-γGlu-γGlu-C18 diacid])WLLAQKGKENDWKHNITQ, the EC50 (pM), hGcg-R CRE Luc, 1% HSA (footnote *) is more than 100000 pM.

Regarding Y[Aib]EGTFISDYSIA[Nle]DKIHQQDFVK([γGlu-γGlu-γGlu-C18 diacid])WLLAQKGKEEDWKHNITQ, the EC50 (pM), hGcg-R CRE Luc, 0.2% HSA was more than 100000 pM.

For the molecule Y[Aib]EGTFISDYSIA[Nle]DKIHQQDFVK([AEEA-AEEA-γGlu-C18 diacid])WLLAQKGKEEDWKHNITQ, the EC50 (pM), hGcg-R CRE Luc, 0.2% HSA was more than 100000 pM.

With Y[Aib]EGTFISDYSIA[Nle]DKIHQQDFVK([γGlu-γGlu-γGlu-C18 diacid])WLLAQKGKENDWKHNITQ, the EC50 (pM), hGcg-R CRE Luc, 1% HSA (footnote *) was more than 100000 pM.

Turning to Y[Aib]EGTFISDYSIALDKIHQQDFVK([AEEA-AEEA-γGlu-C18 diacid])WLLAQKGKKNDWKHNITQ, the EC50 (pM), hGcg-R CRE Luc, 1% HSA (footnote *) is more than 100000 pM.

For the molecule Y[Aib]EGTFISDYSIA[Nle]DKIHQQDFVK([γGlu-γGlu-γGlu-C18 diacid])WLLAQKGKEDDWKHNITQ, the EC50 (pM), hGcg-R CRE Luc, 0.2% HSA was more than 100000 pM.

The molecule Y[Aib]EGTFISDYSIA[Nle]DKIRQQDFVK([AEEA-AEEA-γGlu-C18 diacid])WLLAQKGKEEDWKHNITQ yielded an EC50 (pM), hGcg-R CRE Luc, 0.2% HSA of more than 100000 pM.

Molecule Y[Aib]EGTFISDYSIA[Nle]DKIRQQDFVK([γGlu-γGlu-γGlu-C18 diacid])WLLAQKGKEEDWKHNITQ returned an EC50 (pM), hGcg-R CRE Luc, 0.2% HSA of more than 100000 pM.

Molecule Y[Aib]EGTFISDYSIA[Nle]DKIHQQDFVK([AEEA-AEEA-γGlu-C18 diacid])WLLAQKGKEDDWKHNITQ registered an EC50 (pM), hGcg-R CRE Luc, 0.2% HSA of more than 100000 pM.

A further test concerns the target human GLP-1 receptor (human) (UniProt P43220). Put plainly: cell-based or functional assay.
As for Y[Aib]EGTFISDYSIA[Nle]DKIHQQDFVK([γGlu-γGlu-γGlu-C18 diacid])WLLAQKG, the EC50 (pM), hGLP-1-R CRE Luc, 1% HSA (footnote *) was more than 100000 pM.

With Y[Aib]EGTFISDYSIA[Nle]DKIRQQDFVK([γGlu-γGlu-γGlu-C18 diacid])WLLAQKGKENDWKHNITQ, the EC50 (pM), hGLP-1-R CRE Luc, 1% HSA (footnote *) was more than 100000 pM.

As for Y[Aib]EGTFISDYSIA[Nle]DKIHQQDFVK([γGlu-γGlu-γGlu-C18 diacid])WLLAQKGKEEDWKHNITQ, the EC50 (pM), hGLP-1-R CRE Luc, 0.2% HSA is more than 100000 pM.

Turning to Y[Aib]EGTFISDYSIA[Nle]DKIHQQDFVK([AEEA-AEEA-γGlu-C18 diacid])WLLAQKGKEEDWKHNITQ, the EC50 (pM), hGLP-1-R CRE Luc, 0.2% HSA was more than 100000 pM.

Consider Y[Aib]EGTFISDYSIA[Nle]DKIHQQDFVK([γGlu-γGlu-γGlu-C18 diacid])WLLAQKGKENDWKHNITQ, for which the EC50 (pM), hGLP-1-R CRE Luc, 1% HSA (footnote *) was more than 100000 pM.

Consider Y[Aib]EGTFISDYSIALDKIHQQDFVK([AEEA-AEEA-γGlu-C18 diacid])WLLAQKGKKNDWKHNITQ, for which the EC50 (pM), hGLP-1-R CRE Luc, 1% HSA (footnote *) was more than 100000 pM.

Consider Y[Aib]EGTFISDYSIA[Nle]DKIHQQDFVK([γGlu-γGlu-γGlu-C18 diacid])WLLAQKGKEDDWKHNITQ, for which the EC50 (pM), hGLP-1-R CRE Luc, 0.2% HSA was more than 100000 pM.

Y[Aib]EGTFISDYSIA[Nle]DKIRQQDFVK([AEEA-AEEA-γGlu-C18 diacid])WLLAQKGKEEDWKHNITQ had an EC50 (pM), hGLP-1-R CRE Luc, 0.2% HSA of more than 100000 pM.

With Y[Aib]EGTFISDYSIA[Nle]DKIRQQDFVK([γGlu-γGlu-γGlu-C18 diacid])WLLAQKGKEEDWKHNITQ, the EC50 (pM), hGLP-1-R CRE Luc, 0.2% HSA is more than 100000 pM.

The molecule Y[Aib]EGTFISDYSIA[Nle]DKIHQQDFVK([AEEA-AEEA-γGlu-C18 diacid])WLLAQKGKEDDWKHNITQ returned an EC50 (pM), hGLP-1-R CRE Luc, 0.2% HSA of more than 100000 pM.

For another test, the target named is human glucagon receptor (human, UniProt P47871 26-477). Description: cell-based or functional assay.
human glucagon receptor, sequence (P47871 26-477): as the sequence (P47871 26-477) above
On to H-YAEGTFISDYSIAMDKIHQQDFVNWLLAQKGKKNDWKHNITQ-OH [hGIP(1-42)], for which the “EC50 (pM), hGcg-R CRE Luc, 0.2% HSA” value was more than 100000 pM.
